In the supplement of paper PMC10567573:

B1: SPSB1 (parent)
chain: DMRDPTYRPLKQELQGLDYCKPTR

Variants of: B1
Test: protein stability index of a GFP-peptide fusion (GPS, HEK-293T) (PSI 1-6); higher = more stable
Details: c terminus: a fixed tail appended
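Further: lentivirally expressed fusions sorted by FACS into six bins by GFP to DsRed ratio, PSI derived from sequencing read proportions per bin multiplied by bin number.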

Protein stability index, by site and new letter:
L17: Y 3.7; I 4.02; W 4.02; S 4.18; V 4; Q 4.51; R 3.8; K 3.96; P 3.96; G 3.51; D 4.65; E 4.37; F 3.08; N 4.33; C 3.85
P9: W 2.99; Y 2.67; R 2.25; L 2.58; A 2.69; H 2.35; G 3.51; C 2.52; N 3.35; F 3.26; S 3.35; V 3.19; Q 2.72; M 2.6
D18: W 2.1; H 3.73; K 3.53; L 2.95; E 2.76; A 3.81; S 3.48; R 3.97; N 2.28; T 3.66; P 3.63; F 2.67; M 2.94
P22: W 2.84; I 2.29; V 2.9; L 3.18; F 2.85; R 4.4; A 3.44; S 3.68; D 4.68; Y 3.13; N 3.92; Q 4.26; M 3.07; C 3.71; K 4.35
R24: N 4.03; Q 3.18; V 1.92; A 2.32; L 1.6; C 1.93; H 2.98; F 2.41; E 4.56; T 3.27; D 4.59; Y 2.21; M 1.64; G 3.85; W 1.93
C20: E 4.41; W 2.15; Q 2.8; T 3.71; V 1.78; L 2.98; H 2.93; A 3.34; G 4.3; R 4.42; P 3.94
Q15: N 3.52; T 3.55; V 2.73; E 3.87; C 2.57; I 3.05; W 2.53; S 3.59; M 3.33; P 2.67; A 3.32; F 2.6; D 2.6; L 2.81
Q12: S 3.25; R 3.18; E 2.87; W 2.35; L 3.84; N 3.17; K 2.94; T 3.43; Y 3.12; F 2.67; P 3.04; V 2.59; A 3.12; C 2.74; M 2.23; H 3.46
T23: V 3.29; R 4.3; Y 2.5; E 3.92; F 2.09; S 2.92; I 2.52; P 4.33; L 2.99; A 3.18; G 4.26; C 3.3; H 3.19
P5: E 3.65; K 3.28; G 3.19; A 3.28; V 3.01; L 3.53; D 3.1; C 3.21; S 3.61; I 2.63; M 3.57
R8: I 3.31; K 3.1; Q 3.83; A 3.8; D 3.95; M 3.5; G 3.43; F 2.6; P 3.17; V 3.27; Y 3.13; N 3.46; W 2.99; S 2.68; T 3.08
L10: V 3.14; D 3.76; A 3.54; C 2.6; W 3.24; S 3.56; N 3.16; P 3.37; F 3.56; M 3.25; Q 3.68; I 3.67; H 3.11
G16: S 3.32; T 3.36; K 3.34; R 3.78; Q 3.94; L 3.45; A 3.73; N 3.24; W 3.12; V 2.71; P 3.06; E 2.93; H 3.1
Y19: Q 4.48; I 3.78; C 3.91; K 3.99; E 5.15; R 4.4; V 4.5; W 3.04; A 4.53; H 4.18; T 4.32; D 4.37; N 4.92; F 3.18
E13: C 2.91; V 3.1; D 3.68; L 2.42; H 3.07; S 3.4; K 2.83; Y 2.41; F 2.58; M 2.48; Q 2.98; T 3.18; P 3.68; A 3.09; R 2.98
D4: S 2.61; Y 2.83; G 2.97; M 2.73; I 3.13; E 3.24; A 3.54; K 3.13; F 3.47; R 3.53; C 2.96; Q 3.6; N 2.74; T 2.8; L 2.77; P 2.72; V 2.81
M2: P 4.62; I 3.19; A 3.22; Y 2.72; E 3.51; L 3.01; W 2.57; D 3.86; N 3.38; S 3.77; G 3.78; R 3.71; C 3.01
D1: T 3.62; R 3.32; P 3.82; L 2.36; K 3.06; F 3; A 2.45; W 1.78; S 3.02; Y 2.99; Q 2.83; M 3.39; E 3.53; H 2.94
K21: R 3.5; Y 2.18; M 2.39; S 2.92; F 1.6; T 2.63; G 3.66; N 1.78; P 3.95; I 1.87; W 1.98; C 2.44; V 3.65; D 1.74; Q 2.64; A 2.9
Y7: F 2.98; E 3.86; M 2.64; H 2.79; T 3.68; A 2.08; W 3.1; G 2.64; K 3.31; C 3.14; I 2.54
K11: E 4.03; F 3.24; Q 3.62; L 3.24; D 3.85; T 3.17; Y 4.04; R 3.54; P 3.3; A 3.68; I 2.88; H 3.32; G 3.17; N 4.04
T6: R 3.62; P 3.57; W 4.09; E 3.51; K 3.47; H 2.9; N 3.13; G 3.93; D 2.72; I 3.63; V 3.31; L 2.71; A 3.33; Q 3.55; C 2.91; M 2.92
R3: D 2.59; L 2.9; M 2.99; H 3.08; A 3.16; I 2.96; K 3.2; E 3.84; W 3.14; G 3.21; C 2.9; N 3.19
L14: V 4.05; P 3.89; M 3.68; D 3.83; C 3.71; H 4.03; Q 4.29; Y 3.49; A 4.04; F 3.43; W 2.96; E 2.43; S 4.24; N 3.95
